# Test results: the nanobody polyreactivity screen of Harvey et al. (2022)
# Test: yeast display, Sf9 membrane polyspecificity reagent, FACS + sequencing; frameworks hold sequencing errors
# In short: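 Nanobodies from a synthetic yeast display library (Saccharomyces cerevisiae BJ5465), induced 36–48 hours with galactose, were stained 1 hour at 4 °C with 10% biotinylated, detergent-solubilized Sf9 membrane reagent, enriched on streptavidin microbeads, then FACS-sorted. Anti-HA (expression) and streptavidin (reagent binding) fluorescence set low and high (top ~1%) gates. Polyreactivity labels come from the gate of origin. Genes were colony-PCR amplified, MiSeq 2 × 250 sequenced and filtered by CDR length.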
row,Sequence,polyreactivity (PSR sort gate)
1,QVQLVESGGGLVQAGGSLRLSCAASGRIFDWYAMGWYRQAPGKERELVATISWSGGSTYYADSVKGRFTISRDNAKNTVYLQMNSLKPEDTAVYYCAADDYWRLYTWKFDYWGQGTQVTVSS,high polyreactivity
2,QVQLVESGGGLVQAGGSLRLSCAASGITFKSYAMGWYRQAPGKERELVAAISRRGGSTYYADSVKGRFTISRDNAKNTVYLQMNSLKPEDTAVYYCAADSGREPKGPSRLTYWGQGTQVTVSS,high polyreactivity
3,QVQLVESGGGLVQAGGSLRLSCAASGLTFVDYAMGWYRQAPGKERELVADYYFQRWFYGLRRLCEGALHNFTRQCQEYRNLQMNSLKPEDTAVYYCNTDGPTVAYSEYYYWGQGTQVTVSS,low polyreactivity
4,QVQHVESGICLVQAGGSLRLSCAASGGTVTPYAMGWYRQAPGKERELVAAISRYGARTYYADSVKGRFTISRDNANNNVFLEMNSLKPEVSAVYYCAARWYARTYVRGGMVYWRQGTQVTVSS,high polyreactivity
5,QVQLVESGGGLVQAGGSLRLSCAASGRIFPYNAMGWYIQGPGKERELVAAISGGGSSTYYADSVKGRFTISRDNAKNTVYLQMNSLKPEVTAVYYCAAQAWWDGEYDYWGQGTKVTVSS,high polyreactivity
6,QVQLVESGGGLVQAGGSLRLSCAASGLTFYHYAMGSYRQAPGKERELVAAITTIGGSTNYADSVKGRFTISRDNAKNTVYLQMNSLKPADNAVYYCAKKLTDAQASSHYDYWGQGTQVTVSS,low polyreactivity
7,QVQLVESGGGLVQAGGSLRLSCAASGGLFIGYAMGWYRQAPGKERELVAAISYSGGSTYYADSVKGRFTISRDNAKNTVYLQMNSLKPEDTAVYYCAAQVDRKYRWFNSWGQGTQVTVSS,high polyreactivity
8,QVQLVESGGGLVQAGGSLRLSCAASGRIFSRYTMGGYRQAPGKERELVAANSYRGGSTYYADSVKGRFTISRDNAKNTVYLQMNSLKPEDTAVYYCAARVQAIYRYDYWGQGTQVTVSS,high polyreactivity
9,QGQVVESGGGLVQAGGSLRLSCAASGSTFYGYAMGWYREAAGKERELVAAISRDGSTNYADSVKGRFTISRDNAKNTVYLQMNSLKPEDTAVYYCATRTKKRAPYKFYSWGQGTQVTVSS,high polyreactivity
10,QVQLVESGGGLVQEGGSLRLSCAASGRTFDRYAMGWYRQAPGKERELVAAITWTGGSTYYADSVKGRFTISRDNAKNTVYLQMNSLKPEDTAFYYCNRAPSRPTSKTRLYYWGKGTQVTVSS,high polyreactivity
11,QFQLVESGGGLVQAGGSLRLSCADSGRILRFYAMGWYRQAPGKERELVAAISWTGGRTYYADSVKGRFTISRDNAKNTVYLQMNSLKPEDTAVYYCAAEVFTTGSFRRYDYWGQGTQVTVSS,high polyreactivity
12,QVQLLESGGGLVQAGGSLRLSCAASGSIFTVYAMGWYRQAPGKERELVAAITGSGGRTYYADSVKGRFTISRDNAKNTVYLQRNSLKPEDTAVYYCAATTRPGYRYEGDYWGQGTQVTVSS,low polyreactivity
13,QVQLVESGGVLVQAGGSLRLSCAASGRTLRSYAMGWYRHAPGKERELVAAISRSGGSTYYADSVKGRFTISRDNAKNTVYLQMNSLKPEDTAVYYCATRYLGRLDYWGQGTQVTVSS,high polyreactivity
14,QVQLVESGGGLVQAGGSLRLSCAASGSTSPRNAMGWYRQAPGKERELVAAISSGGRTNYAVSVKGRFTISRDNAKNTVYLQMNSLKPEDTAVYYCAAAVQSTYWGQGTQVTVSS,low polyreactivity
15,QVQLVESGGGLVQAGGSLRLSCAASGRTFGGYAMGWYRQAPGKERELVAAITWRGGRTFYADSVKGRFTISRDNAKNTVYLQMNSLKPEDTAVYYCNVVKYGPRYDYWGQGTQVTVSS,high polyreactivity
16,QVQLVESGGGLVQAGGSLRLSCAGSGSTFGWYVMGWYRQAPGKERELVASITGSGGSTYYADSVKGRFTISRDNAKNTAYLQMNSLKPEDTAVYYCAADTGWYDDWTHDYWGQGTQVTVSS,low polyreactivity
17,QVQLVESGGGLVQAGGSLRLSCAASGFTVWYYAMGWYRQAPGKVRELVASISSIGGSTYYADSVKGRFTISRENAKNTVYLQMNSLKPEDTAVYYCAARYKFLRGVVRRDYWGQGTQVTVSS,high polyreactivity
18,QVQLVESGGGLVQAGGSLRLSCAASRIFRGYAMGWYRQAPGKERELVAAIRRGGSTNYADSVKGRFTISRDNAKNTVYLQMNCLKPEVTAVYYCNAYLYLPRYDYWGQGTQVTVSS,high polyreactivity
19,QVQLVESGGGLVQAGGSLRLSCAASGFTFWGNAMGWYRPAPGKERELVAAITDTGSTNYADSVKGRFTISRDNAKNTVYLQMNSLKPEDTAVYYCAKDKAYYDWGQTNGYWGQGTQVTVSS,low polyreactivity
20,QVQLVESGGGLVQAGGSLRLSCAATGSIFGKYAMGWSRQAPGKERELVAVITWSGGSTYYADSVKGRFTISRDNAKNTVYLQMNSLKPEDTAVYYCNAANTGSQDYQSIGYNFNYWGQGTQVTVSS,low polyreactivity
21,QVQLVESGGGLVQAGGSLRLSCAASGFIFRYYAMGWYRQAPGKERELVAAISSRGSTYYADSVKGRFTISRDNAKNTVYLQMNRLKPEYTALYYCAARGGYRLRYIPYVRYDYWGQGTQLTVSS,high polyreactivity
22,QVQLVESGGGLVQAGGSLRLSCAASGFIFGYNDMGWYRQAPGKERELVAAINSGGSTYYADSVKGRFTISRDNAKNTVYLQMNSLKPEDTAVYYCAADYGYFEYDYWGQGTQVTVSS,low polyreactivity

row,Sequence,polyreactivity (PSR sort gate)
1,QVQLVESGGGLVQAGGSLRLSCAASGSTLDTYAMGWYRQAPGKERELVAGITWSGGSTYYADSVKGRFTISRDNAKNTVYLQMNSLKPEDTAVYYCAAYSPYGPRYDYWGQGTQVTVSS,low polyreactivity
2,QVHLVDSGGGLVQAGGSLRLSCAASGFTYYAMGWYRQAPGKERELVAAITRSGGSTYYADSVKGRFTISRDNAKNSVYLQMKSLKPEDTAVYYCAASGKALKYTARYGSWGQGTQVNVSS,high polyreactivity
3,QVQLVESGGGLVQAGGSLRLSCAASGKTFRYNAMGWYRQAPGKERELVAAISRRGGSTYYADSVKGRFTISRDNAKNTVYLQMNSLKPEDTAVYYCNAGRTAENEYWGQGTQVTVSS,high polyreactivity
4,QVQLVESGGGLVQAGGSLRLSCAASGFTFGYNAMGWYRQAPGKERELVAAISRSGGRTYYADSVKGRFTISRDNAKNTVYLQMNSLKPEDTAVYYCARRYRDYGRYGYWGQGTQVTVSS,high polyreactivity
5,QVQLVESGGGLVQAGGSLRLSCAASGSTFYSYAMGWYRQAPGKERELVAAIDWSGDNTNYADSVKGRFTISRDNAKNTVYLQMNSLKPEDTAVYYCAADWYYTRRRYNYWGQGTQVTVSS,low polyreactivity
6,QVQLVESGGGLVQAGGSLRLSCAASGSTFVDNAMGWYRQAPGKERELVAAITSSGGSTYYADSVKGRFTISRDNAQNTVYLQMNSLKPEDTAVYYCAADEWIVHDGYYSSYYYWGQGTQVTVSS,low polyreactivity
7,QVQLVESGGGLDQAGGSLRLSSAASGRTVDIYAMGWYRQAPWKEWELVAAITRGGSTYYADSVKGRFTISRDNAKNTVYLQMNCLIPEDTAVYYCSAKLGTGYRRWYDYWGQGTQVTVSS,high polyreactivity
8,QVQLVESGGGLVQAGGSLRLSCAASGSTFVTYAMGWYRQAPGKERELVAAIDSGGNTNYADSVKGRFTISRDNAKNTVYLQMNSLKPEDTAVYYCAVRPYELNRLDDQPGGDDYWGQGTQVTVSS,low polyreactivity
9,QVQLVESGGGLVQEGGSLRLSCAASGSIFKPYAMGWYRQAPGKERELVAAINRGGTSTYYADSVKGRFTISRDNAKHTVYLQMNRLKPEDTAVYYCAAEGQDGRFYWGQGTQVTVSS,low polyreactivity
10,QVQLVESGGGLVQAGGSLRLSCAASALTFFYYAMGWYRQAPGKERELVAAISWSGGRTYYADSVKGRFTISRDNAKNTVYLQMNSLKPEDTAVYYCSADYITAHSSYSTYGYWGQGTQVTVSS,low polyreactivity
11,QVQLVESGGGLVQAGGRLRLRCAASGIIFTAYVMGWYRQAPGKERELVADITSGDGSTYYADSVKGRFTISRDNAKNTVYLQMNSLKPEDTAVYYCAADYGQLVFDSYRREYDYWGQGTQVTVSS,low polyreactivity
12,QVQLVESGGGLVQAGGSLRLSCAASGFIFVRNAMGWYRQAPGKERELVAVITRGGSTYYADSVKGRFTISRDNAKNTVYLQMNSLKPEDTAVYYCDARYYRGTYGRTEGAMDYWGQGTQVTVSS,high polyreactivity
13,QVQLVESGGGLVQAGGSLRLSCAASGIILSPYTMGWYRQAPGKERELVAGISRSGGTTYYADSVKGRFTISRDNAKNTVYLQMNSLKPEDTAVYYCAAGLIYGYSGYDSWGQGTQVTVSS,low polyreactivity
14,QFQLVESGGGLVQAGGSLRLSCAASGRIFNYYAMGWYRQAPGKERELVAAISARGGSTYYADSVKGRFTISRDNAKNTVYLQMNSLKPEDTAVYYCAVSSGSYGYGYWGQGTQVTVSS,high polyreactivity
15,QVQLVESGGGLVQAAGSLSLICAASGIIFQRSAKGWYRQAPVKERELVATLTISGGSTYYADSVKGRFTISREYAKNTVYLQMNRLKPEDTAVYYCAAALYYPTVRRRFGSDYYWGQGTQVTVSS,low polyreactivity
16,QVQLVESGGGLVQAGGSLRLSCAASGITFSFYAMGWYRQAPAKERELVATIDSGGSTNYADSVKWRFTISRDNAKNTVYLQMNSLKPEYTAVYYCAADGVWYYYDMDYWGQGTQVTVSS,low polyreactivity
17,QVQLVESGGGLVQAGGSLSLSCAASGRIINWYAMGWYRQATGKERELVARISSGDITSYADSVKGRFTISRDNAKNTVYLQMYSLKPEDTAVSYCAARQWFLYDYWGQGTQVTVSS,low polyreactivity
18,QVQLVESGGGLVQAGGSLRLSCAASGRILAGYAMGWYRQAPGKERELVAVISVGTGSTYYADSVKGRFTISRDNAKNTVYLQMNSLKPEDTAVYYCAADPGPYKELEYGYWGQGTQVTVSS,low polyreactivity
19,QVQLVESGGGLVQAGGSLRLSCAASGRTFEYYAMGWYRQAPGKERDLVAAISTSGGSTYYADSVKGRFTISRDNAKNTVYLQMNSLKPEDTAVYYCNKVQSTANDYWGQGTQVTVSS,low polyreactivity
20,QVKLVESGGGLVQAGGSLRLSCAASGFIFSNNAMGWYRQAPGKERELVAAITSSGGRTYYADSVKGRFTISRDYAKNTVYLQMNSLKPEDSSVYYCAAARYDIMGYWGLGTQVTVSS,high polyreactivity
21,QVQLVESGGGIVQAGGSLRLSSAASGRIFPYYAMGWYRQSPGKERELVAAINWRGTRTYADSVKWRFTISRDNAKYTVYFQMTSLNPEDTAVYYCAARTLYFSKYDYWGLGTQVTVSS,high polyreactivity
